Like-named read-outs stand apart in the source and are kept apart here. Starred links: 1 amine or outer side, 2 acyl side, 3 side chain; linkers in the order of their positions; H or OH if unused. Non-standard residues stand in square brackets, D forms with d. Groups on a side chain read outwards from the residue. No end group written: not given here. *: point of attachment. γGlu = O=C(O)[C@H](CCC(=O)[*:2])N[*:1]; Palmitoyl = CCCCCCCCCCCCCCCC(=O)*; NMeF = CN[C@@H](Cc1ccccc1)C(=O)O; 125I = [125I]*
What was measured:
GPR10 [1] = target: T1, GPR10 (human, UniProt P49683 1-370)
T1 sequence (looked up): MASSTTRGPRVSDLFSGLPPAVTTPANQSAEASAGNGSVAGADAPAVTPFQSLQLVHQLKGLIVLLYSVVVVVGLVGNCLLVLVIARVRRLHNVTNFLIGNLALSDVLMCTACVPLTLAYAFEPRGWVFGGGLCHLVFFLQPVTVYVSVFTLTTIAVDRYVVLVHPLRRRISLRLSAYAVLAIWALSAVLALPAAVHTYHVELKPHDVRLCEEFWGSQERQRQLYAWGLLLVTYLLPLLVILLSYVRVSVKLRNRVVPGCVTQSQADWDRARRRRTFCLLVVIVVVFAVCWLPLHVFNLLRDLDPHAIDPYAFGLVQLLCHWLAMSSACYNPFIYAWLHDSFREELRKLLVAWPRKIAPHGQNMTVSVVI

kappa-opioid receptor [2] = target: T2, kappa-opioid receptor (UniProt P41145 1-380)
ghrelin receptor [3] = target: T3, ghrelin receptor (UniProt Q92847 1-366)
[4] = target: T4, neuropeptide Y receptor Y5 (UniProt Q15761 1-445)
T4 sequence (looked up): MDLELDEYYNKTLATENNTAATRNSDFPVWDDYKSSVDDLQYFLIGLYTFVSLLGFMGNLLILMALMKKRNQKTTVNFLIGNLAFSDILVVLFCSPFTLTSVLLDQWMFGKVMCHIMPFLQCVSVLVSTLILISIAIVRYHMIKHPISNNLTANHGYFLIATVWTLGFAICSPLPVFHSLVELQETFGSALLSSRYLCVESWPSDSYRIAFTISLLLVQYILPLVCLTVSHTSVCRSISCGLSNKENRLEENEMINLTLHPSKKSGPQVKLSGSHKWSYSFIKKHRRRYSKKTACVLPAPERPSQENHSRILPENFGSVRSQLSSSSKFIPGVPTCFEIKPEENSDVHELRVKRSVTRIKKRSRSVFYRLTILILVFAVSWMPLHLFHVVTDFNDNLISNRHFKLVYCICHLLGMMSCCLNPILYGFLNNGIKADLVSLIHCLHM

[5] = target: T5, neuropeptide Y receptor Y2 (UniProt P49146 1-381); assay: radioligand binding; competition with 0.1 nM [^125I]-PYY on U2OS cells with Y1, Y2 or Y5; 25 mM HEPES, 120 mM NaCl, 5 mM MgCl2, 4.7 mM KCl, 1 mM CaCl2, 0.5% BSA, 2 g/L glucose; peptides 10^-12 to 10^-5 M; 60 min at RT; Ki by the Cheng-Prusoff equation
T5 construct: receptor of NPY, Y2; source: U2OS cells stably expressing the receptor, bought: Thermo Fisher Scientific; on cells
T5 sequence (looked up): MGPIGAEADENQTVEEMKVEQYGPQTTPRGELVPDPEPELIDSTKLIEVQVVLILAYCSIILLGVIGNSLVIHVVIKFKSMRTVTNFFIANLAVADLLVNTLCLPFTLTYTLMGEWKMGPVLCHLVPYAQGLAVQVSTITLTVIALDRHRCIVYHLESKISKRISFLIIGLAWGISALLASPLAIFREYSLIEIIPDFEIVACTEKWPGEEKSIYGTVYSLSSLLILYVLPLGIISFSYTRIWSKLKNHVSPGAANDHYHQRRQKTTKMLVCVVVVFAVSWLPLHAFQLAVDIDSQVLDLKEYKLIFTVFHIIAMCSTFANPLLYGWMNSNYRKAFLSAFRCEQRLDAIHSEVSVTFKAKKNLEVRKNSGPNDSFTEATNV

kappa-opioid receptor [6] = target: T2, kappa-opioid receptor; assay: radioligand binding; saturation with [^125I]-dynorphin on KOR
ghrelin receptor [7] = target: T3, ghrelin receptor; assay: radioligand binding; saturation with [^125I]-ghrelin on GHSR
NPFF-R1 [8] = target: T6, NPFF-R1 (UniProt Q9GZQ6 1-430); assay: radioligand binding; saturation with [^125I]-1DMe on membranes from CHO-K1 cells expressing NPFF-R1; details: one partner purified
T6 construct: also called NPFF-1R; source: CHO-K1 cell line, bought: Perkin Elmer

ghrelin receptor [9] = target: T3, ghrelin receptor; assay: radioligand binding; competition with 0.1 nM [^125I]-ghrelin on U2OS cells stably expressing GHSR; 50 mM Tris-Cl pH 7.4, 118 mM NaCl, 5 mM MgCl2, 4.7 mM KCl, 0.1% BSA; peptides 10^-12 to 10^-5 M; 60 min at RT; Ki by the Cheng-Prusoff equation; details: one partner purified
NPFF-R1 [10] = target: T6, NPFF-R1; assay: radioligand binding; competition with [^125I]-1DMe on plasma membranes of CHO-K1 cells with NPFF-R2 or NPFF-R1, 5 µg protein/tube; 50 mM Tris-HCl pH 7.4, 60 mM NaCl, 1 mM MgCl2, 0.5% BSA; 60 min at RT; filtration; Ki by the Cheng-Prusoff equation; details: one partner purified
NPFF-R2 = target: T7, NPFF-R2 (UniProt Q9Y5X5 1-522); assay: as above; details: one partner purified
T7 construct: also called NPFF-2R; source: CHO-K1 cell line (AequoScreen), bought: Perkin Elmer

[11] = target: T8, neuropeptide Y receptor Y1 (UniProt P25929 1-384); assay: radioligand binding; competition with 0.1 nM [^125I]-PYY on U2OS cells with Y1, Y2 or Y5; 25 mM HEPES, 120 mM NaCl, 5 mM MgCl2, 4.7 mM KCl, 1 mM CaCl2, 0.5% BSA, 2 g/L glucose; peptides 10^-12 to 10^-5 M; 60 min at RT; Ki by the Cheng-Prusoff equation; details: one partner purified
T8 construct: receptor of NPY, Y1; source: U2OS cells stably expressing the receptor, bought: Thermo Fisher Scientific; on cells
T8 sequence (looked up): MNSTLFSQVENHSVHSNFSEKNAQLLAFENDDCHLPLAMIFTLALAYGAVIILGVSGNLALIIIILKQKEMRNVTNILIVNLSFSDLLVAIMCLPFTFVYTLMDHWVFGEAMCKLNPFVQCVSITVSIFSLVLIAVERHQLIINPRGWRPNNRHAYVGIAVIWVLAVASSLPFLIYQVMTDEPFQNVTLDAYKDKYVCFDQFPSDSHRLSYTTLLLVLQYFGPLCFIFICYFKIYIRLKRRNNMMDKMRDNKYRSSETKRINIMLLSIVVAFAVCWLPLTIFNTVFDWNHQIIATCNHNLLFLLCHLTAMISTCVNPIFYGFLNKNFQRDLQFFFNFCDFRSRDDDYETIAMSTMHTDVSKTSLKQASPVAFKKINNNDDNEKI

[12] = target: T4, neuropeptide Y receptor Y5; assay: as above; details: one partner purified
kappa-opioid receptor [13] = target: T2, kappa-opioid receptor; assay: radioligand binding; competition with [^125I]-dynorphin A on plasma membranes of CHO-K1 cells with KOR, 5 µg protein/tube; 50 mM Tris-HCl pH 7.4, 60 mM NaCl, 1 mM MgCl2, 0.5% BSA; 60 min at RT; filtration; Ki by the Cheng-Prusoff equation; details: one partner purified
GPR10 [14] = target: T1, GPR10; assay: cell-based or functional assay
kappa-opioid receptor [15] = target: T2, kappa-opioid receptor; assay: cell-based or functional assay
ghrelin receptor [16] = target: T3, ghrelin receptor; assay: cell-based or functional assay
[17] = target: T4, neuropeptide Y receptor Y5; assay: cell-based or functional assay
GPR10 [18] = target: T1, GPR10; assay: radioligand binding; competition with [^125I]-PrRP31 on CHO-K1 cells expressing human GPR10; Ki by the Cheng-Prusoff equation; details: one partner purified

With Palm-PrRP31 (peptide) as the molecule, how does the EC50, agonist mode, β-lactamase reporter assay (GPR10 [1]) read?
Its EC50, agonist mode, β-lactamase reporter assay is 0.0718 nM.

What about the EC50, agonist mode, β-lactamase reporter assay (kappa-opioid receptor [2]) of the same molecule?
The EC50, agonist mode, β-lactamase reporter assay was greater than 10000 nM.

What about the EC50, agonist mode, β-lactamase reporter assay (ghrelin receptor [3]) of the same molecule?
Its EC50, agonist mode, β-lactamase reporter assay is 1270 nM.

And the EC50, agonist mode, β-lactamase reporter assay [4]?
Its EC50, agonist mode, β-lactamase reporter assay is 56.5 nM.

What about the Ki [5] of the same molecule?
Its Ki is greater than 10000 nM.

[^125I]-dynorphin A (peptide) was tested. Which Kd (kappa-opioid receptor [6]) did it give?
Its Kd is 2.38 nM.

How did the Kd (ghrelin receptor [7]) turn out when [^125I]-ghrelin (peptide) was run?
The Kd was 0.44 nM.

B1: [^125I]-1DMe (peptide)
peptide: [dY](125I)L[NMeF]QPQRF-NH2
notes: 1DMe iodinated at D-Tyr1; numbers count on: the peptide
Which Kd (NPFF-R1 [8]) does the source give for B1 here?
The Kd was 0.94 nM.

B2: Palm^11-PrRP31 (peptide)
peptide: SRTHRHSMEIK([γGlu-Palmitoyl])TPDINPAWYASRGIRPVGRF-NH2
notes: analog of human PrRP31 with Arg11 replaced by Lys11 that carries palmitic acid through a gamma-Glu linker; numbers count on: the peptide PrRP31; source: synthetic peptide, palmitoylated on resin, purified (HPLC, purity greater than 95%)
Which results are given for B2?
Ki (ghrelin receptor [9]): 2800 nM; Ki (NPFF-R1 [10]): 13.5 nM; Ki (NPFF-R2): 7.66 nM; Ki [11]: > 10000 nM; Ki ([5]; one partner purified): > 10000 nM; Ki [12]: 362 nM; Ki (kappa-opioid receptor [13]): 4280 nM; EC50, agonist mode, β-lactamase reporter assay (GPR10 [14]): 0.0391 nM; EC50, agonist mode, β-lactamase reporter assay (kappa-opioid receptor [15]): > 10000 nM; EC50, agonist mode, β-lactamase reporter assay (ghrelin receptor [16]): 1070 nM; EC50, agonist mode, β-lactamase reporter assay [17]: 583 nM; Ki (GPR10 [18]): 3.44 nM
